The target of assay [1] is T1, cynomolgus PD-L1 overexpressing stable cell line (cynomolgus, UniProt G7PSE7 19-290).
T1 construct: also called cynomolgus PD-L1 overexpressing cell line
In words: FACS, cynomolgus PD-L1 cell line. (In general: A flow cytometer gives signals particle by particle.)

Assay [2] concerns the target T2, His-tagged PD-L1 ECD protein (ACROBiosystems) (human, UniProt Q9NZQ7 19-238).
T2 construct: Bought protein; also called PD-L1-His; PD-L1/His; not shown: His tag
Nature of the assay: SPR, supernatant IgG captured, PD-L1-His analyte. (In general: Surface plasmon resonance follows binding to a sensor surface in real time, without labels.)

Assay [3] deals with cynomolgus PD-L1 Fc-fusion protein (cynomolgus, UniProt G7PSE7 19-238). In words: SPR, cyno PD-L1-Fc immobilised, antibody analyte.
Sequence of cynomolgus PD-L1 Fc-fusion protein (G7PSE7 entry or part of it limits assumed): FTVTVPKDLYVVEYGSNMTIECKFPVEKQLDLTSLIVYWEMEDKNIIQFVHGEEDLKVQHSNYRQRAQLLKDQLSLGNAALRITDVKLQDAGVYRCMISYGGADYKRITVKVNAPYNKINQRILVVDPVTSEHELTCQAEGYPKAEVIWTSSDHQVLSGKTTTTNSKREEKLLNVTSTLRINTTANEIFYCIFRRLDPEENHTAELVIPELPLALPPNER
Assay [4] has as its target T3, human PD-L1 expressed on CHO-K1 cells (Genscript, Cat #M00543) (human, UniProt Q9NZQ7 19-290).
T3 construct: also called PD-L1 cell line
Nature of the assay: FACS competition vs biotin-PD-1-Fc on CHO-K1/human PD-L1 cells. On the procedure: A series of diluted mouse mAbs (concentration starting from 900 nM, 3 fold dilution, 50 μl per well) were added afterwards. The mixture was incubated at 4° C. for 30 minutes, washed twice with wash buffer, followed by the addition of PEcy5/streptavidin (1 μg/ml, 150 μl/well). The plates were again incubated at 4° C. for 30 minutes before the cells in each well were analyzed by FACSCalibur (BD Bioscience, San Jose, Calif.) and Flowjo software.

In assay [5] the target is T2, His-tagged PD-L1 ECD protein …. Nature of the assay: SPR, IgG captured by anti-human Fc, PD-L1-His analyte. The procedure:
Briefly, capturing antibody (anti-mouse Fc antibody for the affinity measurement of mouse mAbs, or anti-human Fc antibody for the affinity measurement of chimeric and humanized mAbs, GE healthcare) was immobilized on a Biacore™ CM5 chip to approximately 7,000 RU using EDC-activated amine coupling chemistry. Antibody of interest (5 μg/ml) was captured for 60 seconds onto the sensorchip surface. His-tagged PD-L1 ECD protein (ACROBiosystems) was flowed over the sensorchip surface at a series concentrations. Flow rate was 30 μl/min in all experiments. Association and dissociation phases were 5 and 15 min, respectively. The chip was regenerated using Glycine/HCl pH 1.5. Captured antibody and antigen were removed between each cycle using 50 mM HCl in order to ensure a fresh binding surface for each concentration of antigen. The resulting sensorgrams were fit globally using a 1:1 binding model in order to calculate on- and off-rates (ka and kd, respectively), as well as affinities (KD).

Assay [6] addresses T3, human PD-L1 expressed on CHO-K1 cells …. Nature of the assay: cell-based or functional assay.
For assay [7] the target is unchanged. Nature of the assay: FACS, CHO-K1/human PD-L1 cells. The procedure: (§1) PD-L1 stable cell line binding activity assessment of 12 mouse mAbs was carried out using FACS. CHO-K1 cells expressing human PD-L1 (Genscript, Cat #M00543) were dissociated from adherent culture flasks and mixed with varying concentrations of antibodies. The antibody and cells were incubated for 30 minutes at room temperature, washed three times with FACS buffer (PBS containing 1% BSA). PE-labeled goat anti-mouse IgG (minimal x-reactivity) secondary antibody (BioLegend, Cat #405307) was added and incubated at room temperature for 15 minutes. Cells were washed again with FACS buffer and analyzed by FACSCalibur (BD Bioscience, San Jose, Calif.) and Flowjo software. Data were analyzed with Prism 6 (GraphPad Software, San Diego, Calif.) using non-linear regression, and EC₅₀ values were calculated (FIGS. 2A-2L and Table 3).
Human and cynomolgus PD-L1 stable cell line binding activity assessment of chimeric and humanized mAbs was carried out using FACS as described above (FIGS. 9A-9L and FIGS. 10A-10L and Tables 13 and 14).

For assay [8] the target is unchanged. Nature of the assay: FACS, CHO-K1/human PD-L1 cells. On the procedure: as §1
This is another data set of the same source.

In assay [9] the target is T2, His-tagged PD-L1 ECD protein …. In words: SPR, supernatant IgG captured, PD-L1-His analyte. The source holds these as a separate data set.

Like-named read-outs stand apart in the source and are kept apart here.

The record followed here is patent US20220135687A1 (NANJING LEGEND BIOTECH, published 2022).

The term EC50 denotes the concentration needed to bring the measured effect to its halfway point. A lower EC50 goes with higher potency in that assay. A word on the Kd: it is the constant that tells how readily two partners part at equilibrium. Lower therefore signals a tighter complex. Usually koff stands for the first-order rate constant of dissociation. As a reminder, the kon is the rate constant with which the complex forms. Higher therefore signals fast association. In general, IC50 refers to the concentration that gives 50% inhibition. A low value points to inhibition by little substance.

T2 sequence (Q9NZQ7 19-238): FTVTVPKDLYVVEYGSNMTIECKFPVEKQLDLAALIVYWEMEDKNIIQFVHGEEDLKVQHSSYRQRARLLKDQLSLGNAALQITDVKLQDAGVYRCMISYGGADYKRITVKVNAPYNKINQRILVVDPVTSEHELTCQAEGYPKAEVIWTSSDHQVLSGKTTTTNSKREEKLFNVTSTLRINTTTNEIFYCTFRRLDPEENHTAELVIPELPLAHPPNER
T3 sequence (Q9NZQ7 19-290, one chain of several): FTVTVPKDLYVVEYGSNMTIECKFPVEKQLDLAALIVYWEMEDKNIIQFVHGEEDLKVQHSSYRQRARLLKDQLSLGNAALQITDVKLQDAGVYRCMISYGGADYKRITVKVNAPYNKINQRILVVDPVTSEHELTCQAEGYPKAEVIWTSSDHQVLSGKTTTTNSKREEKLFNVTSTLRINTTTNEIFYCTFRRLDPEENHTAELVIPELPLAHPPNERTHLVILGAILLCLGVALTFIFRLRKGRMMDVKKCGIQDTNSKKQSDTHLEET
T1 sequence (G7PSE7 entry or part of it limits assumed): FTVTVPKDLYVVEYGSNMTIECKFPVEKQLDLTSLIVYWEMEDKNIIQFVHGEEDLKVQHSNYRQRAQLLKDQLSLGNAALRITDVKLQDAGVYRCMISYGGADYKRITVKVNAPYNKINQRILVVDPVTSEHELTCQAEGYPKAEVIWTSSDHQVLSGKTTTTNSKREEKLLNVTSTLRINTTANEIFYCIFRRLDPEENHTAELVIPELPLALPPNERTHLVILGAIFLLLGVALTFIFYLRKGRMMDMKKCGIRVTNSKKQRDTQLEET

B1: 29A8_VH1-VL1.M1 (antibody, human IgG1, kappa, N297A)
heavy: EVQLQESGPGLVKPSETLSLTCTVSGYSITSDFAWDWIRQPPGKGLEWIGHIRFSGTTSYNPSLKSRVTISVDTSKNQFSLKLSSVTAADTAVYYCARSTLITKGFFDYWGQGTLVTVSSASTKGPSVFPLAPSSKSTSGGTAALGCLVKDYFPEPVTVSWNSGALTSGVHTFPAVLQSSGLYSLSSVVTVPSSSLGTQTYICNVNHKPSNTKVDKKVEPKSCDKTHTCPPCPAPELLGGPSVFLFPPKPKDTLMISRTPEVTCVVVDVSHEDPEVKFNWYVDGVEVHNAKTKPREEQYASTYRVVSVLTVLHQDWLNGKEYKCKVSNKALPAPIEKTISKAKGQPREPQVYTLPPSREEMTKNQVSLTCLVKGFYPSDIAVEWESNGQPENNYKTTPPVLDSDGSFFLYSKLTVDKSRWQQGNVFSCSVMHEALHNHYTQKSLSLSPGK
light: DIQMTQSPSSLSASVGDRVTITCRASQDVSPAVAWYQQKPGKAPKLLIYWASTRHTGVPSRFSGSGSGTDFTLTISSLQPEDFATYYCQQHYSTPWTFGQGTKVEIKRTVAAPSVFIFPPSDEQLKSGTASVVCLLNNFYPREAKVQWKVDNALQSGNSQESVTEQDSKDSTYSLSSTLTLSKADYEKHKVYACEVTHQGLSSPVTKSFNRGEC
notes: Humanized, hIgG1 effector-less Fc, kappa; see recheck on K24R in the .M1 light chain
Take B1: in [1], a half-maximal effect (EC50) was put at 3.53 nM and the “Top (best-fit value)” value stood at 7470. In addition, in assay [2], binding was characterised by a dissociation constant (Kd) of 1.5 nM, the koff worked out at 0.00071 s⁻¹ and the kon is 470000 M⁻¹ s⁻¹. Besides, in assay [3], the dissociation constant Kd turned out to be 4 nM, the koff is 0.00043 s⁻¹ and the kon is 110000 M⁻¹ s⁻¹. In addition, in [4], the IC50 is 0.463 nM. In addition, in assay [5], the Kd was 1.4 nM, the koff worked out at 0.0008 s⁻¹ and the kon amounted to 590000 M⁻¹ s⁻¹. In assay [6], the “EC50, PD-L1 cell-based luciferase reporter assay” value came to 2.01 nM. In addition, in assay [7], the midpoint of the response, the EC50, lay at 1.75 nM and the “Top (best-fit value)” value is 6400.

B2: 29A8_VH4-VL1.M1 (antibody, human IgG1, kappa, N297A)
heavy: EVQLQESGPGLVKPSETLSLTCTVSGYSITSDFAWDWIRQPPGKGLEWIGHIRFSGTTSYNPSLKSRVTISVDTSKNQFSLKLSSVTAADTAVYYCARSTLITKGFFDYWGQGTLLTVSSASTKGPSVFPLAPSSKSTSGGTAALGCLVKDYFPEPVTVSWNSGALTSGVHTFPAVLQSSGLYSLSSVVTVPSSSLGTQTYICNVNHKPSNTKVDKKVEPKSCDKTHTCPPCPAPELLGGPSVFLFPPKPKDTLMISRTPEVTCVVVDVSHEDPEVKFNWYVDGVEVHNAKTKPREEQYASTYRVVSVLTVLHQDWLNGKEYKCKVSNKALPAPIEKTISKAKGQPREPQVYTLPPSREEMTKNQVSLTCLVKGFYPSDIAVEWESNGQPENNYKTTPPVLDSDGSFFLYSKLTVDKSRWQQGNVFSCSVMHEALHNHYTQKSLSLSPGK
light: DIQMTQSPSSLSASVGDRVTITCRASQDVSPAVAWYQQKPGKAPKLLIYWASTRHTGVPSRFSGSGSGTDFTLTISSLQPEDFATYYCQQHYSTPWTFGQGTKVEIKRTVAAPSVFIFPPSDEQLKSGTASVVCLLNNFYPREAKVQWKVDNALQSGNSQESVTEQDSKDSTYSLSSTLTLSKADYEKHKVYACEVTHQGLSSPVTKSFNRGEC
notes: as for B1
With B2, in assay [1], a half-maximal effect (EC50) was put at 1.49 nM and the “Top (best-fit value)” value is 7820. Moreover, in assay [2], the Kd was determined as 1.1 nM, the koff is 0.00063 s⁻¹ and the kon amounted to 560000 M⁻¹ s⁻¹. In assay [3], this molecule had a Kd of 3.3 nM, a koff of 0.00044 s⁻¹ and an on-rate (kon) of 130000 M⁻¹ s⁻¹. In [4], this molecule showed an IC50 of 0.385 nM. In assay [5], this molecule gave a dissociation constant Kd of 1.1 nM, a koff of 0.00071 s⁻¹ and a kon of 630000 M⁻¹ s⁻¹. Further, in assay [6], the “EC50, PD-L1 cell-based luciferase reporter assay” value was determined as 1.24 nM. In assay [7], the EC50 came out at 1.05 nM and the “Top (best-fit value)” value came to 5180.

B3: 29A8_VH5-VL1.M1 (antibody, human IgG1, kappa, N297A, V domains shown)
VH: EVQLQESGPGLVKPSETLSLTCTVSGYSITSDFAWDWIRQPPGKGLEWIGHIRFSGTTSYNPSLKSRVTISRDTSKNQFSLKLSSVTAADTAVYYCARSTLITKGFFDYWGQGTLVTVSS
VL: DIQMTQSPSSLSASVGDRVTITCRASQDVSPAVAWYQQKPGKAPKLLIYWASTRHTGVPSRFSGSGSGTDFTLTISSLQPEDFATYYCQQHYSTPWTFGQGTKVEIKR
notes: as for B1
For the molecule B3, the figures for the EC50 in assay [1] and in [7] were 3.07 nM and 1.31 nM, respectively. The “Top (best-fit value)” value was 7950 in [1] and 5100 in assay [7]. Moreover, the Kd is 0.76 nM in assay [2], 0.98 nM in assay [3] and 0.74 nM in assay [5]. Besides, the results for the koff in assay [2], in [3] and in assay [5] were 0.00042 s⁻¹, 0.0002 s⁻¹ and 0.00046 s⁻¹, respectively. For the same molecule, the kon in assay [2] was determined as 550000 M⁻¹ s⁻¹; in assay [3], 200000 M⁻¹ s⁻¹; in assay [5], 620000 M⁻¹ s⁻¹. The molecule further registered an IC50 in assay [4] of 0.545 nM. The “EC50, PD-L1 cell-based luciferase reporter assay” value in assay [6] was determined as 1.81 nM.

B4: 30A7B5D9 (antibody, V domains shown)
VH: KVQLQQSGAELVKPGTSVKLSCKASGYTFTEYIIYWIKQRSGQGLEWIGWFYPGTGSIKYNEKFKDKATLTADKSSSTVFMELSRLTSEDSAVYFCARHEEGNLWFAYWGQGTLVTVSA
VL: QIVLTQSPALMSASPGERVTMTCSASSDVSYMYWYQQKPRSSPKPWIYLTSNLASGVPARFSGSGSGTSYSLTISSMEAEDAATYYCQQWTGNPLTFGAGTKLELK
notes: Mouse mAb from hybridoma culture
For the molecule B4, in assay [4], the IC50 stood at 4.43 nM. For the same molecule, in assay [8], the EC50 was found to be 6.12 nM and the “Top (best-fit value)” value was 1720.

B5: 25G1F9F8 (antibody, V domains shown)
VH: EGQLQQSGAELVKPGASVNLSCTASGFNIKDTYIHWVKQRPDQGLEWIGRIAPTNGNAKFHPTFQGKATITADTSSNTAYLQLSSLTSEDTAVYYCTRGGIYYYGTHWYFDVWGAGTTVTVSS
VL: DVLMNQTPLSLPVSLGDQASISCRSSQNIVYSDGNTYLEWYLQKPGQSPKLLIFQVSNRFSGVPDRFSGSGSGTDFTLKISRVEAEDLGFYYCFQGSHVPFTFGSGTKLEIK
notes: as for B4
The molecule B5 came in with an IC50 in assay [4] of 13.8 nM. Further, in assay [8], the EC50 worked out at 18.1 nM and the “Top (best-fit value)” value amounted to 1750.

B6: 30A6B2D9 (antibody, V domains shown)
VH: EGQLQQSGAGLVKPGASVNLSCTASGFNIKDTYIHWMKQRPEQGLEWIGRIAPTNGNTKYDPTFQGKATITADSSSNTAYLQVSSLTSEDTAVYYCSRGGIYYYGSHWYFDVWGAGTTVTVSS
VL: SVLMTQTPLSLPVSLGDQASISCRSSQNIVYSDGDTYLEWYLQKPGQSPKLLIFKVSNRFFGVPDRFSGSGSGTDFTLKINRVEAEDLGVYYCFQGSHVPFTFGSGTKLEIK
notes: as for B4
In [4], B6 showed an IC50 of 8.35 nM. In addition, in assay [8], the EC50 is 11.1 nM and the “Top (best-fit value)” value is 1640.

B7: 53C1_VH2-VL1.M1 (antibody, human IgG1, kappa, N297A, V domains shown)
VH: EVQLVQSGAEVKKPGASVKVSCKASGYIFTGYGITWVRQAPGQGLEWIGEIFPRRVNTYYSEKFKGRATLTTDTSTSTAYMELRSLRSDDTAVYFCARDYDPYFALDYWGQGTTVTVSS
VL: DIQMTQSPSSLSASVGDRVTITCRASQDVSTAVDWYQQKPGKAPKLLIYSASYRYTGVPDRFSGSGSGTDFTFTISSLQPEDIATYYCQQHYSIPFTFGQGTKLEIKR
notes: as for B1
In the case of B7, in assay [9], the Kd amounted to 1 nM, the koff turned out to be 0.00025 s⁻¹ and the kon was determined as 240000 M⁻¹ s⁻¹.

B8: 53C1_VH3.M3-VL1.M1 (antibody, human IgG1, kappa, N297A, V domains shown)
VH: EVQLVQSGAEVKKPGASVKLSCKASGYIFTGYGITWVRQAPGQGLEWIGEIFPRRVQTYYSEKFKGRATLTADTSTSTAYMELRSLRSDDTAVYFCARDYDPYFALDYWGQGTTVTVSS
VL: DIQMTQSPSSLSASVGDRVTITCRASQDVSTAVDWYQQKPGKAPKLLIYSASYRYTGVPDRFSGSGSGTDFTFTISSLQPEDIATYYCQQHYSIPFTFGQGTKLEIKR
notes: Humanized, VH N57Q in the entry; hIgG1 effector-less Fc, kappa; see recheck on K24R in the .M1 light chain
In assay [9], B8 registered a Kd of 0.21 nM, a koff of 7.3e-05 s⁻¹ and a kon of 350000 M⁻¹ s⁻¹.

B9: 42G2D7C3 (antibody, V domains shown)
VH: DVQLLESGPGLVKPSQSLSLTCSVTGYSITSGYYWNWIRQFPGNNLEWMGSINYDGSNDYNPSLQDRISITRDTSKNQFFLKLNSVTTEDTATYYCARRLDYWGQGTTLIVSS
VL: QIVLTQSPAIMSASPGEKVTISCSASSFINYMYWYQQKPGSSPKPWILRTSTLASGVPARFSGSGSGTSYSLTISSMEAEDAATYYCQQYHSYPLTFGAGTKLELK
notes: as for B4
With B9, the IC50 in assay [4] came to 2.89 nM. In [8], the EC50 is 3.29 nM and the “Top (best-fit value)” value was found to be 1780.
